Measurements taken from US20240101717A1 (BIONECURE THERAPEUTICS, published 2024).

Biological target: T1, human Trop-2 (human, UniProt P09758 27-323)
T1 sequence (looked up): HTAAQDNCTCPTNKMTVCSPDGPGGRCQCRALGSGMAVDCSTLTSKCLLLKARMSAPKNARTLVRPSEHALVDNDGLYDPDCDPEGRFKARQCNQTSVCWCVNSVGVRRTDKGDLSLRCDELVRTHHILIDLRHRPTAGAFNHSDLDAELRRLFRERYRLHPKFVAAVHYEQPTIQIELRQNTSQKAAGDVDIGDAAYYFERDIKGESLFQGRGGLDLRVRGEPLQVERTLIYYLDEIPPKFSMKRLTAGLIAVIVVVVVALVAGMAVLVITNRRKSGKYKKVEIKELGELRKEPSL
Test: cell-based or functional assay

B1: A1,2X4-MMAE ADC (antibody, V domains shown)
VH: QVQLQESGPGLVKPSETLSLTCTVSGFSLTSYGVNWIRQPPGKGLEWIGVMWAGGSTNYNSALMSRLTISKDTSKNQFSLKLSSVTAADTAVYYCARDENWDGAWFAYWGQGTLVTVSS
VL: DIVMTQSPDSLAVSLGERATINCKSSQSLLNSGTRKNYLAWYQQKPGQPPKLLISWASSRESGVPDRFSGSGSGTDFTLTISSLQAEDVAVYYCKQSYNLFTFGGGTKVEIK
modifications: MMAE-linker conjugated to the antibody; positions not given
  IC50 (nM), in vitro cytotoxicity assay on MDA-MB-468 cells: 0.389 nM
